Data from patent US20020165135A1 (HESKA, published 2002).

Molecular target: T1, recombinant canine IL-13 (canine, UniProt Q9N0W9 21-131, limits assumed)
T1 sequence (looked up): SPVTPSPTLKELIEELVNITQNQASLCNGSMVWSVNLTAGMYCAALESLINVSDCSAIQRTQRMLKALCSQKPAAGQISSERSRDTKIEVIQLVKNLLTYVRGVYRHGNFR
Assay: cell-based or functional assay

B1: PCaIL-13Rα2-Fc-B9563 (Fc fusion)
chain: MSMLSNAEIKVNPPQDFEIVDPGYLGYLSLQWQPPLFPDNFKECTIEYELKYRNIDSENWKTIITKNLHYKDGFDLNKGIEAKINTLLPAQCTNGSEVRSSWAETTYWTSPQGNRETKIQDMDCVYYNWQYLVCSWKPGMGVHFDTNYQLFYWYEGLDHSAECTDYIKVNGKNMGCRFPYLESSDYKDFYICVNGSSESQPIRPSYFIFQLQNIVKPMPPDYLSLTVKNSEEINLKWNMPKGPIPAKCFIYEIEFTEDGTTWVTTTVENEIQITRTSNESQKLCFLVRSKVNIYCSDDGIWSEWSDEQCWKGDIWKETGSNTKVDKPVAKECECKCNCNNCPCPGCGLLGGPSVFIFPPKPKDILVTARTPTVTCVVVDLDPENPEVQISWFVDSKQVQTANTQPREEQSNGTYRVVSVLPIGHQDWLSGKQFKCKVNNKALPSPIEEIISKTPGQAHQPNVYVLPPSRDEMSKNTVTLTCLVKDFFPPEIDVEWQSNGQQEPESKYRMTPPQLDEDGSYFLYSKLSVDKSRWQRGDTFICAVMHEALHNHYTQISLSHSPGK
  Percent inhibition of IL-13 stimulated TF-1 cell proliferation; IL-13 at 10 ng/ml; fusion protein 6.6 ug/ml; refolding condition 1A: 30.9%
  Percent inhibition of IL-13 stimulated TF-1 cell proliferation; IL-13 at 10 ng/ml; fusion protein 6.6 ug/ml; refolding condition 1B: 43.7%
  Percent inhibition of IL-13 stimulated TF-1 cell proliferation; IL-13 at 10 ng/ml; fusion protein 6.6 ug/ml; refolding condition 1C: 100%
  Percent inhibition of IL-13 stimulated TF-1 cell proliferation; IL-13 at 10 ng/ml; fusion protein 6.6 ug/ml; refolding condition 1D: 99.8%
  Percent inhibition of IL-13 stimulated TF-1 cell proliferation; IL-13 at 10 ng/ml; fusion protein 6.6 ug/ml; refolding condition 2A: 35.1%
  Percent inhibition of IL-13 stimulated TF-1 cell proliferation; IL-13 at 10 ng/ml; fusion protein 6.6 ug/ml; refolding condition 2B: 18%
  Percent inhibition of IL-13 stimulated TF-1 cell proliferation; IL-13 at 10 ng/ml; fusion protein 6.6 ug/ml; refolding condition 2C: 16%
  Percent inhibition of IL-13 stimulated TF-1 cell proliferation; IL-13 at 10 ng/ml; fusion protein 6.6 ug/ml; refolding condition 2D: 7.5%
  Percent inhibition of IL-13 stimulated TF-1 cell proliferation; IL-13 at 10 ng/ml; fusion protein 6.6 ug/ml; refolding condition 3A: 81.3%
  Percent inhibition of IL-13 stimulated TF-1 cell proliferation; IL-13 at 10 ng/ml; fusion protein 6.6 ug/ml; refolding condition 3B: 96.3%
  Percent inhibition of IL-13 stimulated TF-1 cell proliferation; IL-13 at 10 ng/ml; fusion protein 6.6 ug/ml; refolding condition 3C: 98.9%
  Percent inhibition of IL-13 stimulated TF-1 cell proliferation; IL-13 at 10 ng/ml; fusion protein 6.6 ug/ml; refolding condition 3D: 49.9%
  Percent inhibition of IL-13 stimulated TF-1 cell proliferation; IL-13 at 50 ng/ml; fusion protein 6.6 ug/ml; refolding condition 1A: 29.4%
  Percent inhibition of IL-13 stimulated TF-1 cell proliferation; IL-13 at 50 ng/ml; fusion protein 6.6 ug/ml; refolding condition 1B: 34.6%
  Percent inhibition of IL-13 stimulated TF-1 cell proliferation; IL-13 at 50 ng/ml; fusion protein 6.6 ug/ml; refolding condition 1C: 92.3%
  Percent inhibition of IL-13 stimulated TF-1 cell proliferation; IL-13 at 50 ng/ml; fusion protein 6.6 ug/ml; refolding condition 1D: 31.7%
  Percent inhibition of IL-13 stimulated TF-1 cell proliferation; IL-13 at 50 ng/ml; fusion protein 6.6 ug/ml; refolding condition 2A: 19.7%
  Percent inhibition of IL-13 stimulated TF-1 cell proliferation; IL-13 at 50 ng/ml; fusion protein 6.6 ug/ml; refolding condition 2B: 24%
  Percent inhibition of IL-13 stimulated TF-1 cell proliferation; IL-13 at 50 ng/ml; fusion protein 6.6 ug/ml; refolding condition 2C: 11.9%
  Percent inhibition of IL-13 stimulated TF-1 cell proliferation; IL-13 at 50 ng/ml; fusion protein 6.6 ug/ml; refolding condition 2D: 28.8%
  Percent inhibition of IL-13 stimulated TF-1 cell proliferation; IL-13 at 50 ng/ml; fusion protein 6.6 ug/ml; refolding condition 3A: 44.7%
  Percent inhibition of IL-13 stimulated TF-1 cell proliferation; IL-13 at 50 ng/ml; fusion protein 6.6 ug/ml; refolding condition 3B: 92.5%
  Percent inhibition of IL-13 stimulated TF-1 cell proliferation; IL-13 at 50 ng/ml; fusion protein 6.6 ug/ml; refolding condition 3C: 95.4%
  Percent inhibition of IL-13 stimulated TF-1 cell proliferation; IL-13 at 50 ng/ml; fusion protein 6.6 ug/ml; refolding condition 3D: 32.7%
